Assay [1] concerns the target T1, recombinant human PCSK9-His protein (Immunogen A) (human, UniProt Q8NBP7 31-692, limits assumed, biotinylated in the ELISA assays).
T1 construct: also called hPCSK9-His; His-tagged hPCSK9; not shown: His tag
The experiment in a line: BLI, Octet Red 96; antibody on AHC sensor. For orientation: BLI is a label-free optical method that tracks binding on a fibre tip over time.

The target of assay [2] is T1, recombinant human PCSK9-His protein …. Description: SPR, Biacore T200; antibody captured by anti-human Fc. Background: SPR reads the build-up and loss of mass on a sensor chip optically.
Description: Anti-human Fc IgG was immobilized on flow cells 1 and 2: HBS-EP+(10 mM HEPES, 150 mM NaCl, 3 mM EDTA, 0.05% P20, pH 7.4) was used as running buffer, and the immobilization of anti-human Fc IgG was carried out using the immobilization wizard template. Flow cells 1 and 2 of a Series S CM5 sensor chip were activated with freshly-mixed 50 mmol/L NHS and 200 mmol/L EDC. 20 ug/mL of anti-human Fc IgG diluted in 10 mM NaAC (pH 4.5) was injected into the activated flow cells 1 and 2. The remaining active coupling sites were blocked with 1M ethanolamine.
KD measurements were carried out with HBS-EP+ as the running buffer. Each antibody was injected over the CM5 sensor flow cell 2 with a flow rate of 10 uL/min to reach response 230 RU. […] Buffer flow was maintained for 400 seconds for dissociation measurements (30 uL/min). To remove the tested antibody from the surface, 10 mM glycine-HCl pH 1.5 was injected for 20 seconds (30 ulJmin). Flow cell 1 was used as reference flow cell. […] The KD value for each antibody was evaluated using Biacore T200 evaluation software 1.0, and the data was fit with a 1:1 binding model.
In assay [3] the target is T2, recombinant cyno monkey PCSK9 protein (cyno monkey, UniProt A8T666 31-692 (rhesus entry), limits assumed, biotinylated in the ELISA assays).
T2 construct: also called cyno PCSK9; Cyno Monkey PCSK9-His
Description: ELISA; antibody 66.67 nM.

For assay [4], the target named is T1, recombinant human PCSK9-His protein …. Description: ELISA; antibody 0.000067 nM. On the technique in general: An ELISA detects its analyte on a solid surface through an enzyme-linked reagent.
Assay [5] shares this target. Description: ELISA of PCSK9 binding to LDLR ECD; antibody 0 nM.
The target is the same in assay [6]. Description: ELISA; antibody 0.0067 nM.
For assay [7] the target is unchanged. Description: ELISA; antibody 6.67 nM.
Assay [8] addresses T2, recombinant cyno monkey PCSK9 protein. The experiment in a line: ELISA; antibody 0.67 nM.
In assay [9] the target is T1, recombinant human PCSK9-His protein …. The experiment in a line: ELISA; antibody 0.067 nM.
Assay [10] concerns the target T2, recombinant cyno monkey PCSK9 protein. Description: ELISA; antibody 0.067 nM.
Assay [11] shares this target. Description: ELISA; antibody 0.000067 nM.
Assay [12] concerns the target T1, recombinant human PCSK9-His protein …. Description: ELISA; antibody 0.67 nM.
Assay [13] shares this target. The experiment in a line: ELISA of PCSK9 binding to LDLR ECD; antibody 40 nM.
For assay [14] the target is unchanged. The experiment in a line: ELISA of PCSK9 binding to LDLR ECD; antibody 200 nM.
For assay [15], the target named is T2, recombinant cyno monkey PCSK9 protein. The experiment in a line: ELISA; antibody 0.0067 nM.
Assay [16] addresses T1, recombinant human PCSK9-His protein …. Description: ELISA of PCSK9 binding to LDLR ECD; antibody 0.01 nM.
Assay [17] has the same target. Description: ELISA; antibody 0.00067 nM.
The target is the same in assay [18]. Description: ELISA of PCSK9 binding to LDLR ECD; antibody 0.06 nM.
For assay [19], the target named is T2, recombinant cyno monkey PCSK9 protein. Description: ELISA; antibody 0.00067 nM.
For assay [20], the target named is T1, recombinant human PCSK9-His protein …. The experiment in a line: ELISA of PCSK9 binding to LDLR ECD; antibody 1.6 nM.
The target is the same in assay [21]. The experiment in a line: ELISA of PCSK9 binding to LDLR ECD; antibody 0.32 nM.
For assay [22], the target named is T2, recombinant cyno monkey PCSK9 protein. The experiment in a line: ELISA; antibody 0 nM.
Assay [23] has as its target T1, recombinant human PCSK9-His protein …. The experiment in a line: ELISA; antibody 0 nM.
For assay [24] the target is unchanged. Description: ELISA; antibody 66.67 nM.
Assay [25] concerns the target T2, recombinant cyno monkey PCSK9 protein. The experiment in a line: ELISA; antibody 6.67 nM.

The values below come from US20180355059A1 (PHARMAEXPLORER, published 2018).

T2 sequence (A8T666 31-692 limits assumed): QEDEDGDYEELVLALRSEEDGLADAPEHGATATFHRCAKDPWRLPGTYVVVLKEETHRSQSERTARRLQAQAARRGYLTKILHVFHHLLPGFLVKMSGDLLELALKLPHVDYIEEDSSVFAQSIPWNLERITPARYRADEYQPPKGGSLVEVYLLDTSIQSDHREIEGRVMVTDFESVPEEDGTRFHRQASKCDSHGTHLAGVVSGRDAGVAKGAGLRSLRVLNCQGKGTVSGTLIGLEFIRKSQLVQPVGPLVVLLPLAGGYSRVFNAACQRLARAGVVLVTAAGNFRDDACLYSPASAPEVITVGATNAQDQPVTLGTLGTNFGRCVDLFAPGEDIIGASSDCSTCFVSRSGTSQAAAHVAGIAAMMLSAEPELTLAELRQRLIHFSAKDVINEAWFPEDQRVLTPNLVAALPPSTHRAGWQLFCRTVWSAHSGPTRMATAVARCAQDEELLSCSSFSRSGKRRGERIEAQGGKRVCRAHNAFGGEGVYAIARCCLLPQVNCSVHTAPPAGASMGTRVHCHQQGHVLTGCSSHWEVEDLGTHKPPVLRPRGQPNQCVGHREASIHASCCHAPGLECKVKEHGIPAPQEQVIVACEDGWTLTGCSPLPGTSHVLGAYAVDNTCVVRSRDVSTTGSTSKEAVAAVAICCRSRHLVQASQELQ

B1: 103C11E8, fully human anti-PCSK9 antibody (antibody, human IgG1, V domains shown)
VH: QVQLQESGPGLVKPSGTLSLTCAVSGGSISSSNWWSWVRQPPGKGLEWIGEIYHSGSTNYNPSLKSRVTISVDKSKNQFSLKLSSVTAADTAVYYCARGIAVAGTDVMDAWGQGASVTVSS
VL: EIVLTQSPATLSLSPGERATLSCRASQSVSSYLVWYQQKSGQAPRLLIYGTSNRATGIPARFSGSGSGTDFTLTISSLEPEDFALYYCQQRGNWMYTFGQGTKLEIK
In the case of B1, the Kd (commonly the concentration at which binding is half-saturated) in [1] was determined as 2.17 nM; in assay [2] it was 1.42 nM.

B2: 76A1B11, fully human anti-PCSK9 antibody (antibody, human IgG1, V domains shown)
VH: QVQLVESGGGVVQPGRSLRLSCAATGFTFSIYGMHWVRQAPGKGLEWVAVIWYDGSNKYYADSVKGRFIISRDNSKNTLYLQMNSLRVEDTAVYYCVSDYFGSGNSYYYYGMDVWGQGTTVTVSS
VL: DIQMTQSPSSLSASVGDRVTITCRASQVISNYLAWYQQKPGKVPKLLIYTASTLQSGVPSRFSGSGSGADFTLTISSLQPEDVATYYCQKYNSAPYTFGQGTKLEIK
On to B2, for which the OD450 nm was 3 OD450 nm in [3]; 0.06 OD450 nm in assay [4]; 2.38 OD450 nm in [5]; 0.14 OD450 nm in assay [6]; 2.97 OD450 nm in assay [7]; 2.91 OD450 nm in assay [8]. In addition, the OD450 nm in [9] worked out at 0.8 OD450 nm; in assay [10], 1.46 OD450 nm; in assay [11], 0.11 OD450 nm; in assay [12], 2.77 OD450 nm; in assay [13] it was 1.35 OD450 nm; in assay [14] it was 1.27 OD450 nm. Also, the OD450 nm in assay [15] was determined as 0.24 OD450 nm; in assay [16], 2.26 OD450 nm; in assay [17], 0.07 OD450 nm; in assay [18], 2.28 OD450 nm; in assay [19] it was 0.08 OD450 nm; in [20], 2.19 OD450 nm. The OD450 nm in [21] is 2.31 OD450 nm; in [22], 0.07 OD450 nm; in assay [23] it was 0.06 OD450 nm; in assay [24], 2.97 OD450 nm; in assay [25], 3 OD450 nm. Moreover, the equilibrium dissociation constant (Kd) in assay [1] came to 12.1 nM. For the same molecule, the koff – broadly, the first-order rate constant of dissociation – in [1] turned out to be 0.000643 s⁻¹. Moreover, in [1], the kon (as a rule, a measure of how fast the partners come together) amounted to 53100 M⁻¹ s⁻¹.
